Reference: US20090240037A1 (IMMUNOMEDICS, published 2009)
Positions count from the first letter of the chain named. Blank lines part the entries; values can stand above or below the molecule they belong to.

Key:
[1] = target: CD20 (human B lymphocyte-restricted differentiation antigen Bp35) on Raji cells (human) (UniProt P11836); assay: cell surface competitive binding on Raji cells, 4 C, 1-2 h; competitor tracer 125I-labeled rituximab; column head IC50 nM
[2] = target: CD20 (human B lymphocyte-restricted differentiation antigen Bp35) on Raji cells (human) (UniProt P11836); assay: staining of NHL cell lines (Raji, Ramos, RL, Daudi, Su-DHL-6)
[3] = target: CD20 (human B lymphocyte-restricted differentiation antigen Bp35) on Raji cells (human) (UniProt P11836); assay: direct binding of radiolabeled MAb to Raji cells, Scatchard plot analysis
[4] = target: CD20 (human B lymphocyte-restricted differentiation antigen Bp35) on Raji cells (human) (UniProt P11836); assay: cell surface competitive binding on Raji cells, 4 C, 1-2 h; unlabeled rituximab against tracer 125I-labeled c2B8/rituximab
[5] = target: CD20 (human B lymphocyte-restricted differentiation antigen Bp35) on Raji cells (human) (UniProt P11836); assay: cell surface competitive binding on Raji cells, 4 C, 1-2 h; unlabeled rituximab against tracer 125I-labeled rituximab; column head IC50 nM
[6] = target: CD20 (human B lymphocyte-restricted differentiation antigen Bp35) on Raji cells (human) (UniProt P11836); assay: cell surface competitive binding on Raji cells, 4 C, 1-2 h; unlabeled murine A20 against tracer 125I-labeled murine A20
[7] = target: CD20 (human B lymphocyte-restricted differentiation antigen Bp35) on Raji cells (human) (UniProt P11836); assay: cell surface competitive binding on Raji cells; unlabeled murine A20 against tracer 125I-labeled murine A20
[8] = target: T1, CD20 (human B lymphocyte-restricted differentiation antigen Bp35) on Raji cells (human, UniProt P11836 1-297); assay: cell surface competitive binding on Raji cells, 4 C, 1-2 h; competitor tracer 125I-labeled c2B8/rituximab
T1 construct: whole, on cells; The assays name the cells (Raji, Ramos, RL, Daudi, Su-DHL-6); also called CD20 antigen; hCD20
T1 sequence (looked up): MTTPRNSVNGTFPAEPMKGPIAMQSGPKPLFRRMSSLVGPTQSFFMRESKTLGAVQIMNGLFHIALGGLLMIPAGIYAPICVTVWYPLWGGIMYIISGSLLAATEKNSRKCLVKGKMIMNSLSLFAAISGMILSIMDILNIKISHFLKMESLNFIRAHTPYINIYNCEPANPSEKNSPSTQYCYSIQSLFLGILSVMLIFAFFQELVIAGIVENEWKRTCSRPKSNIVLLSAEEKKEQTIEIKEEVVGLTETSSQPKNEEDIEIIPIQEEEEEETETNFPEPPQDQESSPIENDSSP

[9] = target: T1, CD20 (human B lymphocyte-restricted …); assay: cell surface competitive binding on Raji cells, 4 C, 1-2 h; competitor tracer 125I-labeled murine A20
Experimental: (§1) Unbound Abs were removed by washing the cells in PBS. The radioactivity associated with cells was determined after washing.

[10] = target: T1, CD20 (human B lymphocyte-restricted …); assay: cell surface competitive binding on Raji cells, 4 C, 1-2 h; competitor tracer 125I-labeled rituximab; column head IC50 nM
Experimental: (§2) Unbound Abs were removed by washing the cells with PBS. Radioactivity associated with the cells was determined after washing.

[11] = target: T1, CD20 (human B lymphocyte-restricted …); assay: cell surface competitive binding on Raji cells, 4 C, 1-2 h; competitor tracer 125I-labeled murine 2B8
Experimental: as §2

[12] = target: T1, CD20 (human B lymphocyte-restricted …); assay: direct binding of radiolabeled MAb to Raji cells, Scatchard plot analysis
[13] = target: T1, CD20 (human B lymphocyte-restricted …); assay: cell surface competitive binding on Raji cells; competitor tracer 125I-labeled murine A20
Experimental: as §1

[14] = target: T1, CD20 (human B lymphocyte-restricted …); assay: cell surface competitive binding on Raji cells, 4 C, 1-2 h; competitor tracer 125I-labeled rituximab
Experimental: as §2

[15] = target: T2, soluble CEA (Scripps Laboratories) (UniProt P06731 35-685, limits assumed); assay: competitive ELISA; antigen not given, CEA per paragraph 119
T2 construct: Coated at 0.5 ug/well in the ELISA; also injected as soluble analyte in BIAcore
T2 sequence (looked up): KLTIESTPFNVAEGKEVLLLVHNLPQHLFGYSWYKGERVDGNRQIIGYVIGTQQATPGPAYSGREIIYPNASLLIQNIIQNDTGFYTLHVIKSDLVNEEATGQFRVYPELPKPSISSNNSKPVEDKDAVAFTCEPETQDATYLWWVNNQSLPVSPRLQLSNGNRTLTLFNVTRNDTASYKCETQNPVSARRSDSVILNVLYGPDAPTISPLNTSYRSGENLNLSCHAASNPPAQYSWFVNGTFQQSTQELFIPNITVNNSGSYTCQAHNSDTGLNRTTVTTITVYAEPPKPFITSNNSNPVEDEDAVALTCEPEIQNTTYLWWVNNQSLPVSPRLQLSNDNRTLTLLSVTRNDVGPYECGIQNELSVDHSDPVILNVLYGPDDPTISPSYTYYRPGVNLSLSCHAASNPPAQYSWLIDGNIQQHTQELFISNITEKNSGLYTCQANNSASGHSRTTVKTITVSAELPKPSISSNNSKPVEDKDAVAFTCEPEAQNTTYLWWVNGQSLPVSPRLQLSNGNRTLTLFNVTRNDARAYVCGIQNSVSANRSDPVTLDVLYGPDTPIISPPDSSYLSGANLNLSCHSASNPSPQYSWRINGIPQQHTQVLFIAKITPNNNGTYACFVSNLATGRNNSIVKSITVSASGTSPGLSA

[16] = target: T2, soluble CEA (Scripps Laboratories); assay: competitive ELISA on CEA-coated wells (0.5 ug/well); competitor HRP-conjugated hMN14 IgG, 1 nM
Experimental: FIG. 15 is a graphical representation of the results of a competitive enzyme-linked immunosorbent assay (ELISA). […] The % inhibition is plotted vs. nM concentration of sample.
Microtiter plates were coated with 0.5 μg/well with soluble CEA (Scripps Laboratories).

[17] = target: T2, soluble CEA (Scripps Laboratories); assay: ELISA on CEA

Molecule: murine B1 anti-CD20 antibody
IC50 [1]: 34 nM

Molecule: hA20, humanized anti-CD20 antibody (variant hA20-1 or hA20-2 not specified)
percent of cells stained [2]: > 99%
Kd [3]: 4.2 nM

Molecule: rituximab (IDEC Pharmaceuticals Corp.) (antibody)
percent of cells stained [2]: > 99%
IC50 (read off the curve) [4]: 7 nM
IC50 [5]: 5 nM

Molecule: A20, murine anti-CD20 MAb (antibody)
IC50 (read off the curve) [6]: 4 nM
IC50 (read off the curve) [7]: 20 nM

B1: hA20-1, humanized anti-CD20 antibody (hA20VH1 + hA20Vk) (antibody, human IgG1, V domains shown)
VH: QVQLQQSGAEVKKPGSSVKVSCKASGYTFTSYNMHWVKQAPGQGLEWIGAIYPGNGDTSYNQKFKGKATLTADESTNTAYMELSSLRSEDTAFYYCARSTYYGGDWYFDVWGQGTTVTVSS
VL: DIQLTQSPSSLSASVGDRVTMTCRASSSVSYIHWFQQKPGKAPKPWIYATSNLASGVPVRFSGSGSGTDYTFTISSLQPEDIATYYCQQWTSNPPTFGGGTKLEIKR
IC50 (read off the curve) [8]: ~9 nM
IC50 (read off the curve) [9]: ~4 nM
IC50 [10]: 6.8 nM
IC50 (read off the curve) [11]: ~10 nM

B2: hA20-2, humanized anti-CD20 antibody (hA20VH2 + hA20Vk) (antibody, human IgG1, V domains shown)
VH: B1 VH with T30S, K38R, I48M, K67R, L70I, Y95F
VL: B1 VL
IC50 (read off the curve) [9]: ~4 nM
IC50 (read off the curve) [11]: ~10 nM

B5: BS1.5 (679 x hMN14 bispecific diabody: variant 2) (bispecific antibody)
chain 1: MEVQLVESGGDLVKPGGSLKLSCAASGFTFSIYTMSWLRQTPEKRLEWVATLSGDGDDIYYPDSVKGRFTISRDNAKNNLYLQMNSLRSADTALYYCARVRLGDWDFDVWGQGTTVSVSSGGGGSDIQLTQSPSSLSASVGDRVTITCKASQDVGTSVAWYQQKPGKAPKLLIYWTSTRHTGVPSRFSGSGSGTDFTFTISSLQPEDIATYYCQQYSLYRSFGQGTKVEIKRLEHHHHHH
chain 2: MEVQLVESGGGVVQPGRSLRLSCSASGFDFTTYWMSWVRQAPGKGLEWIGEIHPDSSTINYAPSLKDRFTISRDNAKNTLFLQMDSLRPEDTGVYFCASLYFGFPWFAYWGQGTPVTVSGGGGSDIVMSQSPSSLAVSPGEKVTMTCKSSQSLFNSRTRKNYLGWYQQKPGQSPKLLIYWASTRESGVPDRFTGSGSGTDFTLTINSVQSEDLAVYYCTQVYYLCTFGAGTKLELKRLEHHHHHH
notes: Heterodimer of the two polypeptides; pelB leaders removed; copies: 1 + 1
binding result [16]: binds

B7: BS2 (679 x hMN14 bispecific diabody: variant 3) (bispecific antibody)
chain 1: B5 chain 1
chain 2: B5 chain 2 with C225S
notes: as for B5
binding result [17]: binds

The remaining lines, values ahead:

Kd [12]: 2.9 nM
IC50 (read off the curve) [13]: ~10 nM
IC50 (read off the curve) [8]: ~6 nM
IC50 (read off the curve) [14]: ~9 nM
IC50 (read off the curve) [11]: ~9 nM
B3: cA20, chimeric anti-CD20 antibody (antibody, V domains shown)
VH: QVQLQQPGAELVKPGASVKMSCKASGYTFTSYNMHWVKQTPGRGLEWIGAIYPGNGDTSYNQKFKGKATLTADKSSSTAYMQLSSLTSEDSAVYYCARSTYYGGDWYFDVWGQGTTVTVSS
VL: DIQLTQSPAILSASPGEKVTMTCRASSSVSYIHWFQQKPGSSPKPWIYATSNLASGVPVRFSGSGSGTSYSLTISRVEAEDAATYYCQQWTSNPPTFGGGTKLEIK
notes: Murine A20 variable domains with human constant regions; expressed in Sp2/0 cells; also called chimeric A20

binding result [15]: binds
B4: hMN14 diabody (hMN14-scFv-L5) (scFv)
scFv: MEVQLVESGGGVVQPGRSLRLSCSASGFDFTTYWMSWVRQAPGKGLEWIGEIHPDSSTINYAPSLKDRFTISRDNAKNTLFLQMDSLRPEDTGVYFCASLYFGFPWFAYWGQGTPVTVSGGGGSDIQLTQSPSSLSASVGDRVTITCKASQDVGTSVAWYQQKPGKAPKLLIYWTSTRHTGVPSRFSGSGSGTDFTFTISSLQPEDIATYYCQQYSLYRSFGQGTKVEIKRLEHHHHHH
modifications: Non-covalent homodimer (diabody) of two copies of this chain.
notes: Non-covalent homodimer of the scFv; the pelB leader is removed in the mature polypeptide; One codon before the VH and two between the VK and the tag are not spelled out in the text

binding result [17]: binds
B6: BS1 (679 x hMN14 bispecific diabody: variant 1) (bispecific antibody)
chain 1: B5 chain 1 with Q4I
chain 2: B5 chain 2
notes: as for B5
